Data set [1] concerns the target T1, GST-URL1 (ROC8) (Oryza sativa L., UniProt Q69T58 1-710).
T1 sequence: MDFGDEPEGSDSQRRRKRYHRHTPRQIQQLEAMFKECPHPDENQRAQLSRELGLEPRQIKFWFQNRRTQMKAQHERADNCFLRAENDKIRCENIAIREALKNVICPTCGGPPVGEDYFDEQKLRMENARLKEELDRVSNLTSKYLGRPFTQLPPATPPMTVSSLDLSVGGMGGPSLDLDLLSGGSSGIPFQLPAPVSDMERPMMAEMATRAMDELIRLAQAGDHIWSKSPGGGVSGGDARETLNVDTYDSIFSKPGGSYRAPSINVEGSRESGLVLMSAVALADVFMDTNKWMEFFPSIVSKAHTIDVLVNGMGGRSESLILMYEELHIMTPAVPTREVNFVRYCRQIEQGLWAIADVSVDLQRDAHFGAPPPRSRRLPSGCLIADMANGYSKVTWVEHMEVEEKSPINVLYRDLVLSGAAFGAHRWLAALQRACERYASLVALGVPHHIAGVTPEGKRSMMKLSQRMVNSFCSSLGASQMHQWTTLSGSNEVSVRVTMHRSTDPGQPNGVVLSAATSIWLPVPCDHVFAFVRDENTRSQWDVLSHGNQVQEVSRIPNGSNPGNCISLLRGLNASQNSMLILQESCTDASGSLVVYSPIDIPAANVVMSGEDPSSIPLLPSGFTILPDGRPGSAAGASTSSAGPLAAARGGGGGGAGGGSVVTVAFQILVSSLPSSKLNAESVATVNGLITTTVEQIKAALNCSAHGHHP
Description: EMSA; LightShift Chemiluminescent EMSA Kit; buffer, salt, pH and temperature not stated. Particulars: protein: recombinant; tags: N-terminal GST (pCold-GST); chain copies: 2; label: 3' biotin; blunt.

Data set [2] deals with T1, GST-URL1 (ROC8). Description: competition; 100-, 300-, 1000-fold excess vs labeled L1-box I probe; LightShift Chemiluminescent EMSA Kit; buffer, salt, pH and temperature not stated. The following applies: protein: recombinant; tags: N-terminal GST (pCold-GST); chain copies: 2; blunt. (In general: In EMSA bound probe runs differently from free probe, usually more slowly.)

For data set [3], the target named is T1, GST-URL1 (ROC8). Kind of data set: competition; 100-, 300-, 1000-fold excess vs labeled L1-box II probe; LightShift Chemiluminescent EMSA Kit; buffer, salt, pH and temperature not stated. Particulars: protein: recombinant; tags: N-terminal GST (pCold-GST); chain copies: 2; blunt.

The values below come from publication PMC8133684, “The URL1–ROC5–TPL2 transcriptional repressor complex represses the ACL1 gene to modulate leaf rolling in rice”.

B1: mACL1 L1-box I (L1 box deleted) (dsDNA)
DNA 1: ACCGACTAATGGCAATATAAAGATATACCATATCCTGTACTAAGCAATAACCTA
DNA 2: TAGGTTATTGCTTAGTACAGGATATGGTATATCTTTATATTGCCATTAGTCGGT
Turning to B1, in data set [1], the binding result is “no binding”.

B2: mACL1 L1-box II (L1 box deleted) (dsDNA)
DNA 1: TTATCATAAAAGAAACTATAATATTAACTTACATTACTTTAAGGCAA
DNA 2: TTGCCTTAAAGTAATGTAAGTTAATATTATAGTTTCTTTTATGATAA
For B2, the binding result in data set [1] was “no binding”.

B3: ACL1 L1-box I unlabeled competitor (dsDNA)
DNA 1: CCGACTAATGGCAATATATACGTGCAAAGATACATTTATATACCATATCCTGTACTAAGCAATAACCTA
DNA 2: TAGGTTATTGCTTAGTACAGGATATGGTATATAAATGTATCTTTGCACGTATATATTGCCATTAGTCGG
Take B3: in data set [2], the binding result is “binds”.

B4: ACL1 L1-box II unlabeled competitor (dsDNA)
DNA 1: TTATCATAAAAGAAACTATAATATTAACTTATACATTTACATATTTATACTAAATTTTTAAATAAGGCAA
DNA 2: TTGCCTTATTTAAAAATTTAGTATAAATATGTAAATGTATAAGTTAATATTATAGTTTCTTTTATGATAA
As for B4, in data set [3], the binding result is given as “binds”.
